{"source": "paper PMC6702222", "about": "“Visualizing structural transitions of ligand-dependent gating of the TRPM2 channel” (Nature Communications, 2019)", "proteins": {"B1": {"name": "Danio rerio (zebrafish) transient receptor potential melastatin 2 channel, full-length wild type (natural protein, UniProt A0A0R4IMY7 1-1470, looked up)", "chain": "MDEAALEPTLVQTLAVSTAKGGRYLSLSPSFQRCSLASWIKENIKKKECCFYVEDGREGICKCGYPKVQHCDEAIKPEDYMGEQWDKHRHVRETPTDAFGDISFGGLGQKTGKYVRVSSDTSCENLYQLMTEQWKLRSPNLLISVTGGAKNFYIKTHLKDKFRRGLIKVAQTTGAWILTGGTHAGVMKHVGMAVRDYTLSSGSMEGQIVVIGVAPWGVIHNRSTLIHPEGRFPAYYSLDEQGQGRLSCLDINHTHFLLVDDGTQGHYGVEIELRARLEKLISKLSLGNRESGVTIPVVCVVLDGGPGTLNTIYNSMLNHTPCVVLEGSGRLADVIAHVASVPVSKVTMALINRLLKRFFMQEYKNFTELQIIEWTKKIQDILRMPHLLTVFRIDEDKNYDVDVAILQALLKASRSDEHAGRHCWERQLELAVAWNRVDIAESEIFTEESQWTSSDLHPAMFSALVGDKPEFVRLLLENGVCVREFLEREETLCELYSHLPSCFFLRKLAKRVQGGKMRRGQEPLPGSRKVCLSHVSEEVRHLLGSFTQPLYIASRYKPTKDDVRLKVPSKGALDLPCSGEEWSADTVWDPGRDLFLWAVVQNNRELAEIGWEQCRDCIAAALAASKILRKLAQESGEDDSEEATEMLELANHYEKQAIGVFSECHSWDAQRAQKLLIRISPSWGRSTCLWLALEAHDKSFIAHSGVQALLTQIWCGELSVDNPHWKVLLCMIFFPLIYTGFLTFRRDEDIQRQAERTEQQKLAMESVFAGQSDGKIKRHLRGFSQKSELKPLNCSSRLMSFLKSPQVKFYWNIASYFGFLWLFAVVLMIDFQTSPSWRELLLYVWLTSLVCEEIRQLYHDFDGSGFRRKAKMYIKDLWNILDVLSIVLFIAGLICRLQASDTVFYIGKVILCIDFIIFCLRLMAIFSISRTLGPKIIIVRRMMLDLFFFMFLLSIWVVAYGVAKQGILIENEERLNWIIRGAVYEPYITIFGNFPTNIDNTLFDISSCSVNASDPLKPKCPMLNADNTPVFPEWLTIMMLCVYLLFANILLLNLLIAIFNYTFQEVQDNTDTIWKFQRYELIKEYHSRPALPPPFILLSHLILFIRGVFLRDLPQRHKNFRQELEQTEEEELLSWEAYMKDNYLASTRQDESQSVEHRIHDTAEKVGAMSELLEREQEMVSATMAKRLARLEEQVSESAKALRWIIDALKSQGCKSKVQPPLMRSKSSDRDDGDSSGQETDDEEAPHMFARQLQYPDSTVRRFPVPEEKVSWEVNFSPYQPPVYNQQDSSESDTSALDKHRNPGGRTGIRGKGALNTLGPNHILHPIFTRWRDAEHKVLEFLAVWEDAEKRWALLGGPAQPDEPLAQVLERILGKKLNEKTKTLLKAGEEVYKGYVDDSRNTDNAWVETSIITLHCDKNTPLMADLNHMVESSLSSHQPLQWREVSSDACRCSYQREALRQIAHHHNTYF", "notes": "TRPM2, zebrafish (Danio rerio), NCBI XP_009303266.1, full-length wild type from a codon-optimized synthetic gene; Homo-tetramer in all cryo-EM reconstructions; also called TRPM2DR; TRPM2; source: for the ADPR/Ca2+ sample reconstituted into amphipol PMAL-C8"}}, "biological_target": "the molecule itself", "assay": "cryo-EM structure; TRPM2DR in digitonin, Ca2+-free buffer, incubated with 1 mM EDTA (ligand-free); refined with C4 (~4.3 A) and C2 (~4.5 A) symmetry", "data": [{"protein": "B1", "values": [{"measurement": "stoichiometry N", "result": 4}]}]}
